In patent publication US20090117111A1 (XOMA TECHNOLOGY, published 2009):

Columns and labels:
[1] = biological target: T1, human FcγRIIIa-158V (human, UniProt P08637 17-208); assay: Biacore (SPR)
T1 construct: also called FcγRIIIa aa158V allele

[2] = biological target: T2, human FcγRIIIa-158F (human, UniProt P08637 17-208, limits assumed); assay: Biacore (SPR)
T2 construct: also called FcγRIIIa aa158F allele

[3] = biological target: T2, human FcγRIIIa-158F; assay: Biacore (SPR); ratio of KD against rituximab

T2 sequence (P08637 17-208 limits assumed): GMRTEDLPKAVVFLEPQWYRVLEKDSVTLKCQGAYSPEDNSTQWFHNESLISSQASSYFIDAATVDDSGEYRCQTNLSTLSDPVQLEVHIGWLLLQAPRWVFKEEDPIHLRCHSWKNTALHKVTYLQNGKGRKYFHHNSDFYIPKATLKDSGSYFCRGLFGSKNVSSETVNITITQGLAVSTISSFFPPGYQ
T1 sequence (P08637 17-208 F176V): as the sequence (P08637 17-208 limits assumed) above, with F160V counted along it

Kd [1]: 492 nM
Kd [2]: 2800 nM
fold higher affinity compared with rituximab [3]: 4.6 fold
B1: monoclonal antibody CHIR-12.12 (antibody, human IgG1, kappa)
heavy: not shown
light: DIVMTQSPLSLTVTPGEPASISCRSSQSLLYSNGYNYLDWYLQKPGQSPQVLISLGSNRASGVPDRFSGSGSGTDFTLKISRVEAEDVGVYYCMQARQTPFTFGPGTKVDIRRTVAAPSVFIFPPSDEQLKSGTASVVCLLNNFYPREAKVQWKVDNALQSGNSQESVTEQDSKDSTYSLSSTLTLSKADYEKHKVYACEVTHQGLSSPVTKSFNRGEC
notes: Fully human IgG1 kappa anti-CD40 antibody; also called CH12.12
